Measurements taken from paper PMC9482650, “Quantitative fragmentomics allow affinity mapping of interactomes” (Nature Communications, 2022).
Values belong to the binder of their own block, whether it stands above or below them.

What was measured:
Test in all cases: holdup assay
Design in all cases: key: below the threshold = too weak to quantify, mostly under pKd 3.1 to 4
[1] = target: GRID2IP_2, A4D2P6
[2] = target: T1, HTRA3, P83110
T1 sequence (P83110 354-453, limits assumed, looked up): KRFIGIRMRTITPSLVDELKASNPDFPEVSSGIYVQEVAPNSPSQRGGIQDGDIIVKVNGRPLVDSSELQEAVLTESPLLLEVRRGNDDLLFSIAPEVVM

[3] = target: SCRIB_3, Q14160
[4] = target: GOPC, Q9HD26
[5] = target: DLG5_1, Q8TDM6
[6] = target: LAP2, Q96RT1
[7] = target: MAGI2_4, Q86UL8
[8] = target: SCRIB_2, Q14160
[9] = target: GRIP2_5, Q9C0E4
[10] = target: Inadl_10, Q8NI35
[11] = target: IL16_3, Q14005
[12] = target: T2, SNTG1, Q9NSN8
T2 sequence (Q9NSN8 52-150, limits assumed, looked up): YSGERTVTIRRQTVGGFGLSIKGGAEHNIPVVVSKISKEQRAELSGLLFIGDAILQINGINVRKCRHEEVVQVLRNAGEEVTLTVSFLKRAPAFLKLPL

[13] = target: GRIP2_7, Q9C0E4
[14] = target: NHERF4_1, Q86UT5-2
[15] = target: SNX27, Q96L92
[16] = target: T3, PCLO, Q9Y6V0
T3 sequence (Q9Y6V0 4491-4600, limits assumed, looked up): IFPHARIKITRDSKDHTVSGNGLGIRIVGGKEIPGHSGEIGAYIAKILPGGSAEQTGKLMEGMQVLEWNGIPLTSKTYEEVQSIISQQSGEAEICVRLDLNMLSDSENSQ

[17] = target: T4, LIN7B, Q9HAP6
T4 sequence (Q9HAP6 88-185, limits assumed, looked up): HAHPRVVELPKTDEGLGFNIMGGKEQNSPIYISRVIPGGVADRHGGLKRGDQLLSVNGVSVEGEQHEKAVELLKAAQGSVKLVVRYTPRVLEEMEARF

[18] = target: T5, LNX2_2, Q8N448
T5 sequence (Q8N448 334-432, limits assumed, looked up): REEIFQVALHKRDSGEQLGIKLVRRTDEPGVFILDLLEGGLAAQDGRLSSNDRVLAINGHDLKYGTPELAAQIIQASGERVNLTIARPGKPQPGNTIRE

[19] = target: NHERF4_2, Q86UT5
[20] = target: Inadl_5, Q8NI35
[21] = target: T6, NHERF3_1, Q5T2W1
T6 sequence (Q5T2W1 4-100, limits assumed, looked up): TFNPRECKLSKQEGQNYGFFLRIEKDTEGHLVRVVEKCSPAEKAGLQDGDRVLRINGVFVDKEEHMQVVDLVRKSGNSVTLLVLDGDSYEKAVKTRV

[22] = target: T7, CARD11, Q9BXL7
T7 sequence (Q9BXL7 662-765, limits assumed, looked up): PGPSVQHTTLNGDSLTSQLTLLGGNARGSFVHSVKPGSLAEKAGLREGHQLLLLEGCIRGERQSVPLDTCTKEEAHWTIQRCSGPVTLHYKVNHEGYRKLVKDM

[23] = target: LDB3, O75112
[24] = target: DLG4_3, P78352
[25] = target: T8, NHERF3_3, Q5T2W1
T8 sequence (Q5T2W1 238-333, limits assumed, looked up): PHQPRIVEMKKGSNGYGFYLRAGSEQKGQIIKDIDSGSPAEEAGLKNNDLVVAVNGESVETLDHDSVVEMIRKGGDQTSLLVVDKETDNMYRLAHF

[26] = target: T9, LRRC7, Q96NW7
T9 sequence (Q96NW7 1440-1537, limits assumed, looked up): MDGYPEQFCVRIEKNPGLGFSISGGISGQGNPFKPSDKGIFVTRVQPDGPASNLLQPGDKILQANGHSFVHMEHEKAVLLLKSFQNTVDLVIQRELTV

[27] = target: TJP2_1, Q9UDY2
[28] = target: PICK1, Q9NRD5
[29] = plain residues with an end cap or a label only (N-terminal biotin on a linker: ado-ado)
[30] = plain residues with an end cap or a label only (N-terminal biotin on a linker: ahx)

Sequence of DLG4_3, P78352 (P78352 306-403): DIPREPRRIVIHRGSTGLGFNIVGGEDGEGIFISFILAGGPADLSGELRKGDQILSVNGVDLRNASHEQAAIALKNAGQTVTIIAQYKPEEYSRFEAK
Sequence of GRID2IP_2, A4D2P6 (A4D2P6 272-370): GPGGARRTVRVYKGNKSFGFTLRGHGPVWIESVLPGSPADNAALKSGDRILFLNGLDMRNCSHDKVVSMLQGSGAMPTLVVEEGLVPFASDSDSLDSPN
Sequence of GRIP2_7, Q9C0E4 (Q9C0E4 934-1023): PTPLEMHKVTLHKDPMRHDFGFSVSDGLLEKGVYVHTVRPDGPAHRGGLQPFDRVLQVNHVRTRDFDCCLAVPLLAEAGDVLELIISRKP
Sequence of GRIP2_5, Q9C0E4 (Q9C0E4 544-642): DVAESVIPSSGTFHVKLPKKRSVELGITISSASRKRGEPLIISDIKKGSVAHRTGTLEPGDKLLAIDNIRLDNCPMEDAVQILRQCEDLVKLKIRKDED
Sequence of TJP2_1, Q9UDY2 (Q9UDY2 24-128): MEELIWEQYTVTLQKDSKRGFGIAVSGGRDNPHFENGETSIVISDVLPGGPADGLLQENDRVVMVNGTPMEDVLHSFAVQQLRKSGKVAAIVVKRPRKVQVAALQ
Sequence of SCRIB_3, Q14160 (Q14160 999-1103): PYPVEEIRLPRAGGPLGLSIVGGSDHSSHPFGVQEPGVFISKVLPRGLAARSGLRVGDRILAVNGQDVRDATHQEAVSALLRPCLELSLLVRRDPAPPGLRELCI
Sequence of LDB3, O75112 (O75112 1-94): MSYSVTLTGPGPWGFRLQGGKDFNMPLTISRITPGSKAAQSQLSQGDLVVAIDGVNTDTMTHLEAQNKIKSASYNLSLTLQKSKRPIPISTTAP
Sequence of Inadl_5, Q8NI35 (Q8NI35 673-780): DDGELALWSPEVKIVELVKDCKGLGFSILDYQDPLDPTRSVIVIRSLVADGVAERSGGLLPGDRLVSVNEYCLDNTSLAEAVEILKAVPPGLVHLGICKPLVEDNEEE
Sequence of SCRIB_2, Q14160 (Q14160 857-960): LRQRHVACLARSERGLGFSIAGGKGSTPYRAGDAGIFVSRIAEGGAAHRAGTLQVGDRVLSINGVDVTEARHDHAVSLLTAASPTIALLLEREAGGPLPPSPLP
Sequence of MAGI2_4, Q86UL8 (Q86UL8 772-865): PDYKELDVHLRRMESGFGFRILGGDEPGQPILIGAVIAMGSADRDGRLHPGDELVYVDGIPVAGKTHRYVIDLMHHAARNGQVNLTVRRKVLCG
Sequence of IL16_3, Q14005 (Q14005 1107-1207): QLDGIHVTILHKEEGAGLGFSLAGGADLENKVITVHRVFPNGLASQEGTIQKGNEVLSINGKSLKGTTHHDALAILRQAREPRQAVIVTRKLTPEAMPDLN
Sequence of Inadl_10, Q8NI35 (Q8NI35 1673-1763): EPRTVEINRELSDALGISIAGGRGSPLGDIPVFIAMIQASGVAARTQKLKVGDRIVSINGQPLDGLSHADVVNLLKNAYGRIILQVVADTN
Sequence of DLG5_1, Q8TDM6 (Q8TDM6 617-713): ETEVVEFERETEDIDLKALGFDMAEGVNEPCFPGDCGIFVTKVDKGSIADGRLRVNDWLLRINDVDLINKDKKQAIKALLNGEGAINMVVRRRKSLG
Sequence of NHERF4_2, Q86UT5 (Q86UT5 220-308): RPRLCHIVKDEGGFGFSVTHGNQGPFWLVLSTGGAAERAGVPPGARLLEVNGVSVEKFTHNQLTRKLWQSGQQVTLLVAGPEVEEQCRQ
Sequence of LAP2, Q96RT1 (Q96RT1 other isoform, or with tags, fused parts or gaps): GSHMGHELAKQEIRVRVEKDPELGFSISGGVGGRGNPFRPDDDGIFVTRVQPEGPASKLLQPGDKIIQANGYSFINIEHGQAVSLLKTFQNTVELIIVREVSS
Sequence of NHERF4_1, Q86UT5-2 (Q86UT5 other isoform, or with tags, fused parts or gaps): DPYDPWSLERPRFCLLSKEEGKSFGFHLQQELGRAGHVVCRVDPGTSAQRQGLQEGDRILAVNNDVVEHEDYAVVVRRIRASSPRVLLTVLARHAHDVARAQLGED
Sequence of PICK1, Q9NRD5 (Q9NRD5 17-115): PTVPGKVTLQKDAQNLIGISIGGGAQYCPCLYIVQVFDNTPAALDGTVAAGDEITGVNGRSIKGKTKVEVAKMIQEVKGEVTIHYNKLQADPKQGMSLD

pKd [1, 29]: below the threshold
pKd [2, 29]: 3.61
pKd [3, 29]: below the threshold
pKd [4, 29]: below the threshold
pKd [5, 29]: below the threshold
pKd [6, 29]: below the threshold
pKd [7, 29]: below the threshold
pKd [8, 29]: below the threshold
pKd [9, 29]: below the threshold
pKd [10, 29]: below the threshold
pKd [11, 29]: below the threshold
pKd [12, 29]: below the threshold
pKd [13, 29]: 3.93
pKd [14, 29]: below the threshold
pKd [15, 29]: below the threshold
pKd [16, 29]: below the threshold
pKd [17, 29]: below the threshold
pKd [18, 29]: 4.09
pKd [19, 29]: below the threshold
pKd [20, 29]: below the threshold
pKd [21, 29]: 3.71
pKd [22, 29]: below the threshold
pKd [23, 29]: below the threshold
pKd [24, 29]: below the threshold
pKd [25, 29]: below the threshold
pKd [26, 29]: below the threshold
pKd [27, 29]: below the threshold
pKd [28, 29]: 4.18
Binder: MHIQEKGFHV [EPHA6, Q9UF33]

pKd [1, 30]: below the threshold
pKd [2, 30]: below the threshold
pKd [3, 30]: below the threshold
pKd [4, 30]: below the threshold
pKd [5, 30]: below the threshold
pKd [6, 30]: below the threshold
pKd [7, 30]: below the threshold
pKd [8, 30]: below the threshold
pKd [9, 30]: below the threshold
pKd [10, 30]: below the threshold
pKd [11, 30]: below the threshold
pKd [12, 30]: below the threshold
pKd [13, 30]: below the threshold
pKd [14, 30]: below the threshold
pKd [15, 30]: 3.68
pKd [16, 30]: below the threshold
pKd [17, 30]: below the threshold
pKd [18, 30]: below the threshold
pKd [19, 30]: below the threshold
pKd [20, 30]: below the threshold
pKd [21, 30]: below the threshold
pKd [22, 30]: below the threshold
pKd [23, 30]: below the threshold
pKd [24, 30]: below the threshold
pKd [25, 30]: below the threshold
pKd [26, 30]: below the threshold
pKd [27, 30]: below the threshold
pKd [28, 30]: below the threshold
Binder: EKQAKGDTEF [CACYBP, Q9HB71]

pKd [1, 29]: 4.11
pKd [2, 29]: below the threshold
pKd [3, 29]: 4.36
pKd [4, 29]: 3.52
pKd [5, 29]: below the threshold
pKd [6, 29]: 3.52
pKd [7, 29]: 4.98
pKd [8, 29]: 4.16
pKd [9, 29]: below the threshold
pKd [10, 29]: below the threshold
pKd [11, 29]: below the threshold
pKd [12, 29]: 4.13
pKd [13, 29]: below the threshold
pKd [14, 29]: 3.71
pKd [15, 29]: 4.31
pKd [16, 29]: below the threshold
pKd [17, 29]: below the threshold
pKd [18, 29]: 4.22
pKd [19, 29]: below the threshold
pKd [20, 29]: 3.83
pKd [21, 29]: 3.7
pKd [22, 29]: below the threshold
pKd [23, 29]: below the threshold
pKd [24, 29]: 3.57
pKd [25, 29]: below the threshold
pKd [26, 29]: 3.49
pKd [27, 29]: 4
pKd [28, 29]: 4.21
Binder: VLYPREGTEV [FOXI1, Q12951]
